# Test results taken from US20160017037A1 (GlaxoSmithKline, published 2016).
# Values joined by “and” are separate entries in the source; they are usually repeats but may differ in a detail not shown here. Identical values can stand only once.
# T1: Human LAG-3 on cells (human LAG-3 expressing EL4 cells; activated human CD3+ T cells) (human, UniProt P18627 23-525)
# T1 sequence (looked up): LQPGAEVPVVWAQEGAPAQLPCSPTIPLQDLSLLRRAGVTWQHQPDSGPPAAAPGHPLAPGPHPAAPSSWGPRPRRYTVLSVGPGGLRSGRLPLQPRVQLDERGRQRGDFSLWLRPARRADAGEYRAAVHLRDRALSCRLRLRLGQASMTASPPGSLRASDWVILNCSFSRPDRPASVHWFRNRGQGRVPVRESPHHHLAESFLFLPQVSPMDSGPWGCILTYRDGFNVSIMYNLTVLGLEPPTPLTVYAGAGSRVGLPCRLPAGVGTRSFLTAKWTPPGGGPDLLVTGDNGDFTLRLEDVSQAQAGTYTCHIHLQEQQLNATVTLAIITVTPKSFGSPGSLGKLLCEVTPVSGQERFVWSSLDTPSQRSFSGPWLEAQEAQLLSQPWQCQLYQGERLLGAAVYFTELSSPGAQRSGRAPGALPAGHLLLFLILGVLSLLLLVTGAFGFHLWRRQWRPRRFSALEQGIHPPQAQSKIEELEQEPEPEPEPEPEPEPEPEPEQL
# T2: Fc-tagged recombinant soluble LAG-3 (IMP321) (human, UniProt P18627 23-434)
# T2 construct: also called LAG3-Ig molecule IMP321; recombinant sLAG-3; not shown: Fc / Ig part
# T2 sequence (looked up): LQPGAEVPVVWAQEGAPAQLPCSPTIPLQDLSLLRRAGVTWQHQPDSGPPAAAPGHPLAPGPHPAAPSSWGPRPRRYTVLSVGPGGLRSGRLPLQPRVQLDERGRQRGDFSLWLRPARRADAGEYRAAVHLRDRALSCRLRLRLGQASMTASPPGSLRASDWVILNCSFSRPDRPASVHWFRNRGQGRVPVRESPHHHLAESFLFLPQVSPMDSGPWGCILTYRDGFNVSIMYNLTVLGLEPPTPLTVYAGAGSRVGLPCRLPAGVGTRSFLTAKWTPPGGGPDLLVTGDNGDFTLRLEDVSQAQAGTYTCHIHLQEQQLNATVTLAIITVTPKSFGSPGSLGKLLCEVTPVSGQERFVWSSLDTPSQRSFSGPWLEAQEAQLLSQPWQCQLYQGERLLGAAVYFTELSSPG
# Columns and labels:
# [1] = target: T3, recombinant soluble human FcγRIIIa V158 (human, UniProt P08637 17-208); assay: SPR ProteOn XPR36, His-tagged receptor captured on anti-poly-histidine IgG, equilibrium model
# T3 construct: also called FcγRIIIa valine V158; CD16
# T3 sequence (P08637 17-208 F176V limits assumed): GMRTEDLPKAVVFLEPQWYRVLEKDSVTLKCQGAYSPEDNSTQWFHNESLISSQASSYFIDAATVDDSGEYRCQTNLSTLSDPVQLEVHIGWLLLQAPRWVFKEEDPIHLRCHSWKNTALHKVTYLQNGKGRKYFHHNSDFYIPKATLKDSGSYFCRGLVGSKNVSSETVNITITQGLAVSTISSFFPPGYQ
# Experimental: (§1) A goat anti-poly-histidine IgG was immobilised on a GLM biosensor chip by primary amine coupling. This surface was used as a capture surface for the poly-histidine tagged human Fc gamma receptors. […] The goat anti-poly-histidine IgG surface was regenerated with 100 mM phosphoric acid between interactions. The run was carried out on the ProteOn XPR36 Protein Array Interaction System at 25° C. and using HBS-EP as running buffer. Data was analysed for each receptor separately, setting a global R-max and using the Equilibrium Model inherent to the ProteOn's analysis software. Control molecules were run at the beginning and the end of the set of samples to be tested to ensure comparability of results. Data was compared from two experiments and hybrid control antibodies used as controls between experiments.
# [2] = target: T4, recombinant soluble human FcγRIIIa F158 (human, UniProt P08637 17-208); assay: as above
# T4 construct: also called FcγRIIIa phenylalanine F158; CD16
# T4 sequence (P08637 17-208 limits assumed): as the sequence (P08637 17-208 F176V limits assumed) above, with V160F counted along it
# Experimental: as §1
# [3] = target: T1, Human LAG-3 on cells (human LAG-3 …); assay: cell-based or functional assay
# [4] = target: T2, Fc-tagged recombinant soluble LAG-3 …; assay: SPR Biacore 3000, off-rate comparison with IMP731, IMP321 analyte at 64 nM
# Experimental: The binding kinetics of the purified antibodies for a sLAG-3 molecule were assessed by SPR using a Biacore™ 3000. A goat anti-human kappa antibody (Southern Biotech, Catalogue No. 2060-01) was immobilised on a CM5 chip by primary amine coupling. Humanised anti-LAG3 antibodies were captured on this surface and the LAG3-Ig molecule IMP321 (Chrystelle Brignone, Caroline Grygar, Manon Marcu, Knut Schakel, Frederic Triebel, The Journal of Immunology, 2007, 179: 4202-4211) used as the analyte at 64 nM with a buffer injection (i.e. 0 nM) used to double reference the binding curves. Regeneration was with 10 mM Glycine, pH1.5. The run was carried out on the Biacore™ 3000, using HBS-EP as running buffer and at 25° C. Sensorgrams were normalised for binding at maximal association and off-rates compared against IMP731 by visual inspection of the sensorgram profiles.
Binder,fold improvement in affinity against H5L7 [1] [fold],fold improvement in affinity against H5L7 [2] [fold],"EC50 of depletion of antigen specific CD4 T cells by ADCC (primary human T cells, autologous NK cells, 18 h) [3]",EC50 of depletion of antigen specific LAG-3 positive CD8 T cells by ADCC [3],Rank order of off-rates [4]
"H5L7BW (antibody, human IgG1, kappa, afucosylated: no fucose on the core carbohydrate structure attached to Asn297, Same plasmids as H5L7, expressed in the BioWa POTELLIGENT (FUT8 knock-out CHO) cell line; also called afucosylated antibody H5L7BW; afucosylated H5L7) heavy: not shown light: DIQMTQSPSSLSASVGDRVTITCKSSQSLLNPSNQKNYLAWYQQKPGKAPKLLVYFASTRDSGVPSRFSGSGSGTDFTLTISSLQPEDFATYYCLQHFGTPPTFGQGTKLEIKRTVAAPSVFIFPPSDEQLKSGTASVVCLLNNFYPREAKVQWKVDNALQSGNSQESVTEQDSKDSTYSLSSTLTLSKADYEKHKVYACEVTHQGLSSPVTKSFNRGEC",~10,~10,14 µg/mL and 3.4 ng/mL,122 µg/mL and 0.0175 µg/mL,–
"H5L7 (antibody, human IgG1, kappa, Humanised IgG1/kappa of A9H12 (IMP731); also called fucosylated H5L7; non-ADCC enhanced variant H5L7) heavy: not shown light: DIQMTQSPSSLSASVGDRVTITCKSSQSLLNPSNQKNYLAWYQQKPGKAPKLLVYFASTRDSGVPSRFSGSGSGTDFTLTISSLQPEDFATYYCLQHFGTPPTFGQGTKLEIKRTVAAPSVFIFPPSDEQLKSGTASVVCLLNNFYPREAKVQWKVDNALQSGNSQESVTEQDSKDSTYSLSSTLTLSKADYEKHKVYACEVTHQGLSSPVTKSFNRGEC",–,–,–,–,1
